Literature values in patent US20190275108A1, “COMPOSITIONS IN THE FORM OF AN INJECTABLE AQUEOUS SOLUTION COMPRISING AMYLIN, AN AMYLIN RECEPTOR AGONIST OR AN AMYLIN ANALOGUE AND A CO-POLYAMINO ACID” (ADOCIA, priority 2017, published 2019).
Like-named read-outs stand apart in the source and are kept apart here.

amylin: peptide of 37 amino acids, co-stored and co-secreted with insulin (KCNTATCATQRLANFLVHSSNNFGAILSSTNVGSNTY; Islet amyloid polypeptide; UniProt P10997 34-70, looked up)
Time for which amylin is stable (acidic pH): about fifteen | Time for which amylin is stable (neutral pH): less than a minute
